Results published in patent US20150004189A1 (published 2015).

Experiments:
[1] = target: HLA DQ molecule DQB1*0202 (human); test: inhibition of radiolabeled peptide binding to purified HLA class II
[2] = target: HLA DQ molecule DQB1*0602 (human); test: as above
[3] = target: HLA DQ molecule DQB1*0502 (human); test: as above
[4] = target: HLA DQ molecule DQB1*0503 (human); test: as above
[5] = target: HLA-DQ molecule DQB1*0202 (human); test: inhibition of radiolabeled peptide binding to purified HLA-DQ
[6] = target: HLA-DQ molecule DQB1*0502 (human); test: as above
[7] = target: HLA-DQ molecule DQB1*0602 (human); test: as above
[8] = target: HLA-DQ molecule DQB1*0503 (human); test: as above
[9] = target: HLA DQ molecule DQB1*0502 (human); test: inhibition of radiolabeled peptide binding to purified HLA class II; remark: listed apart in the source
[10] = target: HLA DQ molecule DQB1*0503 (human); test: as above; remark: listed apart in the source
[11] = target: HLA DQ molecule DQB1*0602 (human); test: as above; remark: listed apart in the source
[12] = target: HLA DQ molecule DQB1*0202 (human); test: as above; remark: listed apart in the source

AIVYYSMYGHIKKMA [Alt a 7 (6-20) peptide AIVYYSMYGHIKKMA, Peptide ID 3324.0085]
IC50 [1]: 6.24 µM | IC50 [2]: 3.35 µM

DEYVEQVAQYKALPV [Fel d 1 1 (41-55) peptide DEYVEQVAQYKALPV, Peptide ID 3324.1049]
IC50 [2]: 0.14 µM | IC50 [3]: 0.337 µM

NALSVLDKIYTSPLC [Fel d 1 1 (78-92) peptide NALSVLDKIYTSPLC, Peptide ID 3324.1050]
IC50 [4]: 5.83 µM | IC50 [2]: 1 µM

AETCPIFYDVFFAVA [Fel d 1 2 (21-35) peptide AETCPIFYDVFFAVA, Peptide ID 3324.1056]
IC50 [1]: 2.1 µM

NGNELLLDLSLTKVN [Fel d 1 2 (36-50) peptide NGNELLLDLSLTKVN, Peptide ID 3324.1055]
IC50 [4]: 9.37 µM | IC50 [1]: 8.02 µM | IC50 [3]: 2.87 µM

GSCWAFSGVAATESA [Der f 1 (131-145) peptide GSCWAFSGVAATESA, Peptide ID 3324.0670]
IC50 [4]: 7.93 µM | IC50 [2]: 1.33 µM | IC50 [3]: 9.32 µM

FSGVAATESAYLAYR [Der f 1 (136-150) peptide FSGVAATESAYLAYR, Peptide ID 3324.0666]
IC50 [4]: 4.19 µM | IC50 [2]: 2.02 µM | IC50 [3]: 1.21 µM

EDTNIYNSNEAFKVE [Cup a 1 (316-330) peptide EDTNIYNSNEAFKVE]
IC50 [5]: 7.54 µM | IC50 [6]: 2.42 µM | IC50 [7]: 8.29 µM

EKALWIIFSQNMNIK [Cup s 1 (86-100) peptide EKALWIIFSQNMNIK]
IC50 [5]: 5.56 µM | IC50 [6]: 13 µM | IC50 [8]: 1.93 µM

NMNIKLKMPLYVAGH [Cup s 1 (96-110) peptide NMNIKLKMPLYVAGH]
IC50 [5]: 50 µM | IC50 [6]: 20.8 µM | IC50 [7]: 14.5 µM | IC50 [8]: 11.7 µM

PARLFKAFVLDSDNL [Que a 1 (16-30) peptide PARLFKAFVLDSDNL]
IC50 [5]: 0.31 µM | IC50 [6]: 0.0079 µM | IC50 [7]: 2.6 µM | IC50 [8]: 0.161 µM

ASEVFKAVEAYLVAH [Que a 1 (141-155) peptide ASEVFKAVEAYLVAH]
IC50 [5]: 0.953 µM | IC50 [6]: 5.31 µM | IC50 [8]: 2.04 µM

GSDEKNLALSIKYNK [Dac g 2 (11-25) peptide GSDEKNLALSIKYNK]
IC50 [5]: 7.2 µM | IC50 [7]: 0.13 µM | IC50 [8]: 50 µM

RYANPIAFFRKEPLK [Lol p 11 peptide, position 111, RYANPIAFFRKEPLK (Peptide ID 3324.1138)]
IC50 [9]: 0.793 µM | IC50 [10]: 1.6 µM | IC50 [11]: 9.74 µM | IC50 [12]: 26 µM

IAFFRKEPLKECGGI [Lol p 11 peptide, position 116, IAFFRKEPLKECGGI (Peptide ID 3337.0029)]
IC50 [9]: 1.44 µM | IC50 [10]: 0.903 µM | IC50 [11]: 50 µM | IC50 [12]: 26.2 µM

DGVWEIKSDKPLKGP [Lol p 2 peptide, position 51, DGVWEIKSDKPLKGP (Peptide ID 3324.1139)]
IC50 [11]: 26.6 µM | IC50 [12]: 0.53 µM

IKSDKPLKGPFNFRF [Lol p 2 peptide, position 56, IKSDKPLKGPFNFRF (Peptide ID 3324.1140)]
IC50 [9]: 38.2 µM | IC50 [10]: 50 µM | IC50 [11]: 50 µM

MRNVFDDVVPADFKV [Lol p 2 peptide, position 76, MRNVFDDVVPADFKV (Peptide ID 3337.0030)]
IC50 [10]: 0.347 µM | IC50 [11]: 39.5 µM

SDAKTLVLNIKYTRP [Lol p 3 peptide, position 11, SDAKTLVLNIKYTRP (Peptide ID 3324.1142)]
IC50 [9]: 50 µM | IC50 [10]: 33.9 µM | IC50 [12]: 25.7 µM

LWEVKSAKPLTGPMN [Lol p 3 peptide, position 51, LWEVKSAKPLTGPMN (Peptide ID 3337.0031)]
IC50 [11]: 3.95 µM | IC50 [12]: 2.44 µM

DAYVATLTEALRVIA [Lol p 5 1 peptide, position 151, DAYVATLTEALRVIA (Peptide ID 3324.1167)]
IC50 [9]: 50 µM | IC50 [10]: 50 µM | IC50 [12]: 1.8 µM

DSYKFIPTLVAAVKQ [Lol p 5 1 peptide, position 236, DSYKFIPTLVAAVKQ (Peptide ID 3324.1165)]
IC50 [9]: 50 µM | IC50 [10]: 4.64 µM | IC50 [12]: 5.86 µM

PAAAYATATPAAATA [Lol p 5 1 peptide, position 306, PAAAYATATPAAATA (Peptide ID 3324.1184)]
IC50 [9]: 7.45 µM | IC50 [11]: 0.224 µM | IC50 [12]: 0.679 µM
